Experimental data: the DeepSol protein solubility set

Experiment: soluble on expression in E. coli; label from the status in PepcDB or PDB records

MPVNIPPLLPEQLLPIPGLSLGTAEASIKRPGRKDILVITLAENTRVAGVFTRNRFCAAPVTVARSHLTGSLPIRALVINTGNANAGTGQSGIDHAHATCASLARLIGCQTQQVLPFSTGVIMEPLPVEKIITHLPQALANLAPDNWFAAAQAIMTTDIVPKGVSRQIQINGTTVTITGIAKGSGMIHPNMATMLGYIATDAAVTQPLLDDLVRYATDRSFNCVTVDGDTSTNDALILMATGQAGNTPITVSTDPAFISLQAAITEVAALLAQMIVRDGEGATKFITVQVESGKTREECTKVAYAIAHSPLIKTACFASDPNLGRILAAIGYAGIEDLDVNLVQLYLGNILVAEHGGRAASYREEDGQRIMQAPEITIQVKLNRGNASTTVWTCDLSYDYVKINADYRSLEHHHHHH
soluble on expression in E. coli: not soluble

MGSDKIHHHHHHMIKNTIKKLIEHSIYTTFKLLSKLPNKNLIYFESFHGKQYSDNPKALYEYLTEHSDAQLIWGVKKGYEHIFQQYNVPYVTKFSMKWFLAMPRAKAWMINTRTPDWLYKSPRTTYLQTWHGTPLKKIGLDISNVKMLGTNTQNYQDGFKKESQRWDYLVSPNPYSTSIFQHAFHVSRDKILETGYPRNDKLSHKRNDTEYINGIKTRLNIPLDKKVIMYAPTWRDDEAIREGSYQFNVNFDIEALRQALDDDYVILLRMHYLVVTRIDEHDDFVKDVSDYEDISDLYLISDALVTDYSSVMFDFGVLKRPQIFYAYDLDKYGDELRGFYMDYKKELPGPIVENQTALIDALKQIDETANEYIEARTVFYQKFCSLEDGQASQRICQTIFK
soluble on expression in E. coli: not soluble

MGSDKIHHHHHHMAFIAGEIAAVLDLPEVLRRRLFVAALLHDVGALSPEEKMDLYASKVEECDTHCIRGARLLHQVDGFGEEGRVLRLHHATLRDGSLADVDEDTARLAQIVHLSDLVDRALDRGRYVLHQADTMCDMARDLARCDFEVSIVRAFLEVARREDFWLQMVLPTLGQHLEAISPCRGEMLDACGVEVHAGLVQGMVDFRSSFTAAHSAGVAEAADALGGYCDLSPERRVVLRIAGLLHDLGKMAVPTSILEKPSGLTKAEFAFMRQHTFHTYRLLRGVDGLGGMAAWAAYHHEKLDGSGYPFHLEGRALDPQARIIGVADIFTAMAEDRPYRKGQGREGVLRVLRDECTTGRVDGELVETVAESYPDMVGRVLDAQHAARSRFSDVLQPAGEKGAKADQST
soluble on expression in E. coli: not soluble

MYNLKNIYASITLYPHEINLVVSDNNNQFHVLYENSIANDELYTHAGITNKAKFKVVLNQLINNANDYLGFKLEKVIVVLAELVDDLEINRFKTDVFFTGYDFNHQDMLSSEKNRFLLKNRHINPNEVLDLVALNYRDLTTDKISKNFKYNCSYRANVIYYTTKNSLVKELKPFLKRNIIVKIDKIVTHHMVLAHSIKQINKNNLFVYLGEHTTDLMLFMDNALVDLVSEPFGRVNFLESDNDSENKALLEFLVDSTARIGDSGSIGMAYTDGSTYKEIRAVTIDDLIQSVNEKTKYLIDFINTNTEIFFQKYGFLPSTLLFYTKSKQLLNNFQLNQNLLSNHFKTVTIFKNEVQFVSRKYLLNCQTIALSWRQDQINVNPTSFALPFYSDKIEKQFKKSFLMLKVHTHINKLVQKLIK
soluble on expression in E. coli: soluble

MSKATYKERAATHPSPVAAKLFNIMHEKQTNLCASLDVRTTKELLELVEALGPKICLLKTHVDILTDFSMEGTVKPLKALSAKYNFLLFENRKFADIGNTVKLQYSAGVYRIAEWADITNAHGVVGPGIVSGLKQAAEEVTKEPRGLLMLAELSCKGSLATGEYTKGTVDIAKSDKDFVIGFIAQRDMGGRDEGYDWLIMTPGVGLDDKGDALGQQYRTVDDVVSTGSDIIIVGRGLFAKGRDAKVEGERYRKAGWEAYLRRCGQQN
soluble on expression in E. coli: soluble

MRNKPFYLLCAFLWLAVSHALAADSTITIRGYVRDNGCSVAAESTNFTVDLMENAAKQFNNIGATTPVVPFRILLSPCGNAVSAVKVGFTGVADSHNANLLALENTVSAASGLGIQLLNEQQNQIPLNAPSSAISWTTLTPGKPNTLNFYARLMATQVPVTAGHINATATFTLEYQ
soluble on expression in E. coli: not soluble

MMNYDRILIRYGEMTTKGKNRNIFVRRLKNNIARKLQAFERIQIEYMRDRMYILLNGEPHEPIIEKLKTVFGIHSFSLAMKCENDLDAIKETALAAVRQLPYKGKTFKVSARRVDKQFPDRSDELNYEVGAHILRHTDGLTVNVREPDIDVRIEVRQDGTYVTCRDIFGAGGLPVGTSGKAMLMLSGGIDSPVAGYLSMKRGLEIEAVHFFSPPFTSERAKQKVIDLVRKLTTYGGRIKLHIVPFTEVQQAIYQGVPNEYSLISTRRAMLRITDALRRRQRALAIVTGESLGQVASQTLESMYVINEVTNTPILRPLVSMDKLEIIELAKQIGTHDISILPYEDCCTIFTPRAPKTKPKKEKVFHYESQLDLAPLLEKAVNDTETLVIDEETGQGDEFAELF
soluble on expression in E. coli: not soluble

MAKILVAGKIPEIGLELLKDHDVEMYDKEELISLDELTERVKDKDALLSLLSTKVTKEVIDAAPSLKIVANYGAGYDNIDYTYAGEKGIAVTNTPKVSTEATAELTFALLLAAARRIPEGDTLCRTTGFNGWAPLFFLGREVHGKTIGIIGLGEIGKAVAKRAKAFGMNILYTGPNRKPEAESELEATYVTLEELLQTADFITINCAYNPKLHHMIDEEQFKMMKKTAYIVNASRGPIMHEAALAHALKTNEIEGAALDVFEFEPKITEELKGLKNVVLAPHVGNATFETRDAMAEMAVRNILAVLKGEEPVTPVNQKVFVTK
soluble on expression in E. coli: soluble

MGSDKIHHHHHHMLVVKDKPKSPISEAYRTLRSNIQFSSFDKDMQLILITSSGPGEGKSTTSCNLALAMAEAGNSVLLLDCDLRKPSVHKKFKISNNIGLSNVLAGQTKFESASHWYNQNLCILTAGKIPPNPAEMLSSKRMKAFLNEAKGVFKYIILDAPPVIAVTDPQILSTMVDGVVLVVSSGVADIEAAKRAKELLENVNANIIGSVLNRVDTESRRGYYGGYYYYYGDEGEKVKKHKDR
soluble on expression in E. coli: not soluble

MSLKSSEQMRALFPDHPEACDNTLLLTEMIGSYDEVFKYVDRMPQFDVPEGETQESWLRKKLQEGLDEKFGPNPPKEVLERLETELSVIEPLGFASYFLVVSDICNAARSMGVPVGPGRGSAAGSLVAYLTGIIAINPLEHGLLFERFLNPERVNPPDIDLDFDDRQRDKVIDYVTHKYGAEYTSQVNTFGKIKAKAAVKDANRILGYPFALGDKITKAMPPDVMGKGVPLDKIFDSSHERYGEGQEFRQLVADNPDVAKVVETAKGLEGLIRGTGVHACAFILSSTPLLDLVPMHKRDKDGMIIAGFAYPQLEEMGLMKMDFLGLRNLGIMDHCIKIIKANRGIDVDLKNIALDDKTTYEMLARGDTLGVFQLDGTAMRSLLRLMGPTCFDDIVAVLALYRPGPMGANAHISYAQRKNNREPIIPIHPELKEDLDEILAPTYHLIVYQEQIMSIARKLAGYTLGGADLLRRAMGKEGHHHHHH
soluble on expression in E. coli: soluble

MGSDKIHHHHHHMKDILVHIDDSERCSARLDIAIGLAKTFGARLTGLFARTESHRPSAVAHKASDQLTQARDAAKEAFTKACASAGITSRWWQLAHGEPGHVVSETMFCARYADLVVMGQTEPKSKIVPEEMVEHVILHCGRPVLVVPHTGSFPSVGERMALAWNAGKEAVRALNDAKPLMLKAKSVTVLSLRGPADDGSNAMGEVPQVDVLDHLAACGITASAERLAGEHIGKMDMLLSRLCDLGADLVVMGAHGHYGLSLKRGTGTRYVLAHMTVPVLMSN
soluble on expression in E. coli: not soluble

MVLRAKLLSWQEGVGSKTFEFDVDVEPRSYVISKVSQLSPIIASEDLTVCEGEVAVVGTRVIEIPENTVVRPVAAISHANGFVADVIECGAPGMVEDEKCINHAVFIPTRSGDVKEGDLLGMLRINFVRTGLLSRVILEHHHHHH
soluble on expression in E. coli: not soluble

MGSDKIHHHHHHMAYSDTPEQSAVINWKGRHLVVNAFAGTGKTTTLVRYAQANPDRRMLYLAYNRAVRDDAERKFPFNVECKTSHQLAWMKFGKHLKPRLTPNLRITDVARKLNTRHWPLVRMALAALNHFLCSASPALSYEHLPDENNREGLDAGNILGAAQFLWNEMSRIDSTFPVTHDTYLKLFQLSVPDLSKRWDTILFDEAQDANPVISSLVLTQNCNVVLVGDRHQQIYRFRGADNALNAPVLEGADRLWLTQSFRFGSAVAEMANVLLARQEETHPVIGNGGDDDVIDRLPADVSRYTILSRTVAGVIGAALYESMKEKIVYWVGGIEGYKTEELEDLYWFSVDMPERMRTPRLSREYRDFEEYKSMTKATGDVEMNQAIGLLDKYFPLPQKLQVLRSQATTNEKDADVVVSTAHRSKGLEWDTVMLNDDFSDITDPLLSEAARTDETNLLYVATTRARKLLVRNELLKLLCEQEESDDIAEDQFTDSNLI
soluble on expression in E. coli: not soluble

MTQSDYIESSEHIKDTQIGYCKYGHGPNYILAICGAVGCYKKDWPLKLLSHFPPDQVTIVGIDPPGYGTSRPPERKQEVQRCMKDSEYCLGLMETLKLEPFTVMGWSEGARTTVHVAAKGKEKVNRMIVMAGATKVNHLGAMAFKGMRETNHWLAAGRQPYLDHYSPETLRTQWAALCDVVDQVHSFCGGRFPCDLVLPQVKCPTLVMNGGLDRFCGDPNVCFIPVLKSLAKVEIHAQGGHDFYLKYPKWFSGKVLEFLKSTEKK
soluble on expression in E. coli: not soluble

MAEQLEFFPVASPCRGICQSDERGFCRGCMRSRDERFNWQKMSDVEKQNVLRLCRQRFLRKIRANKPLPSEDPQQPSLF
soluble on expression in E. coli: not soluble

RDPIGYEKMFSKLRGGIVHARETAKRIAASPIVEQEGELCFTLYNAVGDSVLTSTGIIIHVGTMGSAIKYMVENNWEDNPGINDKDIFTNNDCAIGNVHPCDIMTLVPIFHDEKLIGWVGGVTHVIDTGSVTPGSMSTGQVQRFGDGYMITCRKTGANDESFKDWLHESQRSVRTPKYWILDERTRIAGCHMIRDLVMEVIKEDGIDSYMRFIDEVIEEGRRGLISRIKSMTIPGKYRKVAFVDVPYAHKDIGVCSEFAKLDTIMHSPVEITINKDATWKLDFDGASRWGWHSFNCNQVSFTSGIWVMMTQTLIPTSRINDGAYFATQFRLKKGTWMNPDDRRTGHAYAWHFLVSGWSALWRGLSQAYYSRGYLEEVNSGNANTSNWLQGGGINQDGEIHAVNSFETSSCGTGACAIKDGLNHAAAIWNPEGDMGDVEIWEMAEPLLYLGRNVKANTGGYGKYRGGNGFETLRMVWGAHDWTMFFMGNGYMNSDWGMMGGYPAASGYRFEAHNTDLKNRIKNNASLPLGGDFNPTDRDYEKHISHASQVKRDKQCITTENCFDNYDLYLNYIKGGPGFGDPIERDLNAILEDLNSKQL
soluble on expression in E. coli: not soluble

GPGSMASKKGGKKANGEDLEAAILRWFECEGEPATVQSLTDALGSKFGKQLVQNTLEQCLKEQKLLAKDIKKARFYFLASPAPGSNDEGSDVGSHKIDIVKQLRQLRNGVSMLSSELSVLLQAQTSSKRATTIASLVSECAALRSRLQALHVIAGKESSCVSDDVSLLIHRYKRARELWRDRKRITVCVIDAVLGDSCGPQELEDIFGLSTDEQMNLCLSGTALTLPATVSS
soluble on expression in E. coli: not soluble

MLLPKFLLLTAFLEFASAICADSNDQEIKGFCFKFVTQQLTFTDARTWCHLKNPVGPSYLAYVPSQDTSTYLAFYARSAFGADAEVFWIGLSRNASSGSLSWDNGLPVAYTNFGTNVGKNYFTESISNTKWDTLGDGDLNFFVCSYAPIVNSTTMTSITGTTKRMTTTTIEKLNCKPGDHQIILFAYSNDLAPSVVTDALYYSSLSSQSVTYAVSRFDLRQPEDIQYFSDYSLFSSYVSSHLPDYTLGFEEATTGSNVFEVINKFYDNTQATCGSNLIILSKRYPNTADVSNIVLKVRKSQGMVNFLASHAPSGGTVSQGLYDLCSLTNGIYSIGRDSSFSNMIESMPIRYRYAIYADNPKVSGQGSQTLASMSVPADGTYYLSMMLQNHTPVNTTQSVLLHWYSPYSRYSSTASVHGLSFETNNNGANSEILDAAIYNVTLDFVYFTSETMQIRFYGTSTDHWLPYAD
soluble on expression in E. coli: not soluble
